Test results as given in US20170137512A1 (Ablynx, published 2017).
Read-outs that look alike come from different tables or passages of the source.

T1: cyno Kv1.3 (Macaca fascicularis, UniProt P22001 1-575 (human entry))
T1 chain: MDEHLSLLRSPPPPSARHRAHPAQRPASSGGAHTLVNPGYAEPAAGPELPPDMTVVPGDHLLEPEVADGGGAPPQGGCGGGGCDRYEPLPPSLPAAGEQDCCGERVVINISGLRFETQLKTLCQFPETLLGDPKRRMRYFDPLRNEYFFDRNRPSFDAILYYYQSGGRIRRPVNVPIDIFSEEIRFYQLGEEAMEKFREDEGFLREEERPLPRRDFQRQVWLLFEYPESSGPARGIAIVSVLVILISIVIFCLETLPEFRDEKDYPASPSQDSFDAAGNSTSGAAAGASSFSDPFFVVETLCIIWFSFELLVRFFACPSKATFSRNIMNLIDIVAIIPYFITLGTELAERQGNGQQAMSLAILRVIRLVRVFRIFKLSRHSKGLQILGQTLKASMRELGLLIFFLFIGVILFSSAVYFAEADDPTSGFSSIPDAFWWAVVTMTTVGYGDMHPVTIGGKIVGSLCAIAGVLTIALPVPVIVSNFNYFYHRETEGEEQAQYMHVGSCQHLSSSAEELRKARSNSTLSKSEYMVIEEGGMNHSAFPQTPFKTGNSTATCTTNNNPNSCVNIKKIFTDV

B1: A019400003 (VHH)
VHH: EVQLVESGGGLVQAGGSLSLSCTASGGTFRNFGMGWFRQAQGKEREFVAAISRTGGHTYYQDSVKGRFTISKDNAKNILSLQMNSLKPEDTAVYYCAARFRFGDGTYYYQRAFYDFWGQGTQVTVSS
notes: Monovalent Nanobody of family 1, purified from E. coli TG1; not shown: triple Flag, His6 tag
B2: A019400012 (other)
chain: EVQLVESGGGLVQAGGSLGLSCSASGLLFSRNSAGWYRQAPGKQREFVARIRMGGSINYADTVKGRFTISRDNAKNTVYLQMNSLKPEDTAVYYCSSWRTGFYEYWGQGTLVTVSSGGGGSGGGGSGGGGSGGGGSGGGGSGGGGSGGGGSEVQLVESGGGLVQAGGSLSLSCTASGGTFRNFGMGWFRQAQGKEREFVAAISRTGGHTYYQDSVKGRFTISKDNAKNILSLQMNSLKPEDTAVYYCAARFRFGDGTYYYQRAFYDFWGQGTLVTVSS
B3: A0194009G09 (VHH)
VHH: EVQLVESGGGLVQAGGSLGLSCSASGLLFSRNSAGWYRQAPGKQREFVARIRMGGSINYADTVKGRFTISRDNAKNTVYLQMNSLKPEDTAVYYCSSWRTGFYEYWGQGTLVTVSS
notes: Monovalent Nanobody of family 12; not shown: triple Flag, His6 tag
B4: A019400015 (VHH)
chain: EVQLVESGGGLVQAGGSLGLSCSASGLLFSRNSAGWYRQAPGKQREFVARIRMGGSINYADTVKGRFTISRDNAKNTVYLQMNSLKPEDTAVYYCSSWRTGFYEYWGQGTLVTVSSGGGGSGGGGSGGGGSGGGGSGGGGSGGGGSGGGGSEVQLVESGGGLVQAGGSLGLSCSASGLLFSRNSAGWYRQAPGKQREFVARIRMGGSINYADTVKGRFTISRDNAKNTVYLQMNSLKPEDTAVYYCSSWRTGFYEYWGQGTLVTVSSGGGGSGGGGSGGGGSGGGGSGGGGSGGGGSGGGGSEVQLVESGGGLVQAGGSLGLSCSASGLLFSRNSAGWYRQAPGKQREFVARIRMGGSINYADTVKGRFTISRDNAKNTVYLQMNSLKPEDTAVYYCSSWRTGFYEYWGQGTLVTVSS
notes: Trivalent Nanobody construct (family 12); also called A0194009G09-35GS-A0194009G09-35GS-A0194009G09
B5: A019400014 (other)
chain: EVQLVESGGGLVQAGGSLSLSCTASGGTFRNFGMGWFRQAQGKEREFVAAISRTGGHTYYQDSVKGRFTISKDNAKNILSLQMNSLKPEDTAVYYCAARFRFGDGTYYYQRAFYDFWGQGTLVTVSSGGGGSGGGGSGGGGSGGGGSGGGGSGGGGSGGGGSEVQLVESGGGLVQAGGSLGLSCSASGLLFSRNSAGWYRQAPGKQREFVARIRMGGSINYADTVKGRFTISRDNAKNTVYLQMNSLKPEDTAVYYCSSWRTGFYEYWGQGTLVTVSS
notes: Biparatopic Nanobody construct (family 1 - family 12); also called A019400003-35GS-A0194009G09; A019400011
B6: A019400032 (VHH)
chain: DVQLVESGGGLVQAGGSLGLSCSASGLLFSRNSAGWYRQAPGKRREFVARIRMGGSINYADSVKGRFTVSRDNAKNMMYLQMNDLKPEDTAVYFCSGWREGFYEYWGQGTLVTVSSGGGGSGGGGSGGGGSGGGGSGGGGSGGGGSGGGGSEVQLVESGGGLVQAGGSLGLSCSASGLLFSRNSAGWYRQAPGKRREFVARIRMGGSINYADSVKGRFTVSRDNAKNMMYLQMNDLKPEDTAVYFCSGWREGFYEYWGQGTLVTVSS
B7: A019400009 (VHH)
chain: EVQLVESGGGLVQAGGSLGLSCSASGLLFSRNSAGWYRQAPGKQREFVARIRMGGSINYADTVKGRFTISRDNAKNTVYLQMNSLKPEDTAVYYCSSWRTGFYEYWGQGTLVTVSSGGGGSGGGGSGGGGSGGGGSGGGGSGGGGSGGGGSEVQLVESGGGLVQAGGSLGLSCSASGLLFSRNSAGWYRQAPGKQREFVARIRMGGSINYADTVKGRFTISRDNAKNTVYLQMNSLKPEDTAVYYCSSWRTGFYEYWGQGTLVTVSS
B8: A019400013 (VHH)
chain: B7 chain
notes: Bivalent Nanobody construct (family 12 - family 12), without Alb11; also called A0194009G09-35GS-A0194009G09
B9: A019400004 (other)
chain: EVQLVESGGGLVQAGGSLSLSCTASGGTFRNFGMGWFRQAQGKEREFVAAISRTGGHTYYQDSVKGRFTISKDNAKNILSLQMNSLKPEDTAVYYCAARFRFGDGTYYYQRAFYDFWGQGTQVTVSSGGGGSGGGGSGGGGSGGGGSGGGGSGGGGSGGGGSGGGGSEVQLVESGGGLVQAGGSLSLSCTASGGTFRNFGMGWFRQAQGKEREFVAAISRTGGHTYYQDSVKGRFTISKDNAKNILSLQMNSLKPEDTAVYYCAARFRFGDGTYYYQRAFYDFWGQGTQVTVSS
notes: Bivalent Nanobody construct (family 1 - family 1), expressed in Pichia; also called A019400003-40GS-A019400003

Tests used:
rat Kv1.3 [1] = molecular target: T2, rat Kv1.3 (Rattus norvegicus, UniProt P15384 1-525); assay: FACS, CHO cells expressing rat Kv1.3
T2 construct: Expressed on CHO cells

cyno Kv1.3 [2] = molecular target: T1, cyno Kv1.3
human Kv1.3 [3] = molecular target: T3, human Kv1.3 (Homo sapiens, UniProt P22001 1-575); assay: cell-based or functional assay
human Kv1.3 [4] = molecular target: T3, human Kv1.3
cyno Kv1.3 [5] = molecular target: T1, cyno Kv1.3; assay: FACS, CHO cells expressing cyno Kv1.3
human Kv1.3 [6] = molecular target: T3, human Kv1.3; assay: FACS, CHO cells expressing human Kv1.3
human Kv1.3 [7] = molecular target: T3, human Kv1.3; assay: cell-based or functional assay; remark: listed apart in the source
human Kv1.3 [8] = molecular target: T3, human Kv1.3; assay: cell-based or functional assay; remark: listed apart in the source
human Kv1.3 [9] = molecular target: T3, human Kv1.3; assay: cell-based or functional assay; remark: listed apart in the source
cyno Kv1.3 [10] = molecular target: T1, cyno Kv1.3
human Kv1.3 [11] = molecular target: T3, human Kv1.3; assay: cell-based or functional assay; remark: listed apart in the source
human Kv1.3 [12] = molecular target: T3, human Kv1.3; assay: cell-based or functional assay; remark: listed apart in the source
human Kv1.3 [13] = molecular target: T3, human Kv1.3; assay: FACS, CHO cells expressing human Kv1.3; remark: listed apart in the source
rat Kv1.3 [14] = molecular target: T2, rat Kv1.3; assay: FACS, CHO cells expressing rat Kv1.3; remark: listed apart in the source
cyno Kv1.3 [15] = molecular target: T1, cyno Kv1.3; assay: FACS, CHO cells expressing cyno Kv1.3
human Kv1.3 [16] = molecular target: T3, human Kv1.3; assay: cell-based or functional assay; remark: listed apart in the source
rat Kv1.3 [17] = molecular target: T2, rat Kv1.3; assay: FACS, CHO cells expressing rat Kv1.3, with 50 µM HSA
cyno Kv1.3 [18] = molecular target: T1, cyno Kv1.3; assay: FACS, CHO cells expressing cyno Kv1.3, with 50 µM HSA
rat Kv1.3 [19] = molecular target: T2, rat Kv1.3; assay: FACS, CHO cells expressing rat Kv1.3; remark: listed apart in the source
cyno Kv1.3 [20] = molecular target: T1, cyno Kv1.3; assay: FACS, CHO cells expressing cyno Kv1.3

T3 sequence (P22001 whole entry): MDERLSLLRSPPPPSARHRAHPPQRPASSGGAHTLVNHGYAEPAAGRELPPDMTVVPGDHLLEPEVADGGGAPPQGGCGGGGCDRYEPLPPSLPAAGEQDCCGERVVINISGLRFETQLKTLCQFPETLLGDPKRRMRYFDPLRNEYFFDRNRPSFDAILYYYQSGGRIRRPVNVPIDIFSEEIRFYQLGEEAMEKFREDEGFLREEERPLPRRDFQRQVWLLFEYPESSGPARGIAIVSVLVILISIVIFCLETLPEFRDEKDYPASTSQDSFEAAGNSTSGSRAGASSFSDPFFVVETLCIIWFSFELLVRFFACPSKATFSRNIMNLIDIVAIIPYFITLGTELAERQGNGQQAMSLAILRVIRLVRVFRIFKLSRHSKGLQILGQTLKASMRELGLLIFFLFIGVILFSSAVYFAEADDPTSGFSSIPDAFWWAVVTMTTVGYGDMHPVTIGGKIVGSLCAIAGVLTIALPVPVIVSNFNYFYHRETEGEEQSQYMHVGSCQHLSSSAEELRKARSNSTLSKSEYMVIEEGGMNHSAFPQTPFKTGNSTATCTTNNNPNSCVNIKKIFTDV

Row | Binder | IC50, CD25 read out, CCR7-CD45RA- T cells stimulated with anti-CD3 (human Kv1.3 [7]) | IC50, IFNγ read out, CCR7-CD45RA- T cells stimulated with anti-CD3 (human Kv1.3 [7]) | Average IC50, Kv1.3 current, IonWorks perforated patch clamp, CHL cells (human Kv1.3 [8]) | Average IC50, Kv1.3 current, IonFlux automated patch clamp, HEK293H cells (human Kv1.3 [9]) | IC50 (cyno Kv1.3 [10]) | EC50 (human Kv1.3 [13]) | EC50 (rat Kv1.3 [14]) | EC50 (cyno Kv1.3 [15]) | further results
1 | B1 | – | – | – | – | – | – | – | – | EC50 (rat Kv1.3 [1]): 380 nM; IC50 (cyno Kv1.3 [2]): 1.3 nM; Average IC50, Kv1.3 current, IonWorks perforated patch clamp, CHL cells (human Kv1.3 [3]): > 1000 nM; IC50 (read off the curve) (human Kv1.3 [4]): ~30 nM; EC50 (cyno Kv1.3 [5]): 2.5 nM; EC50 (human Kv1.3 [6]): 6.2 nM
2 | B2 | 0.31 nM | 0.31 nM | 4.2 nM | 4.2 nM | 0.5 nM | – | – | – | –
3 | B3 | – | – | – | – | – | – | – | – | EC50 (rat Kv1.3 [1]): 240 nM; IC50, CD25 read out, CCR7-CD45RA- T cells stimulated with anti-CD3 (human Kv1.3 [11]): 62 nM; IC50, IFNγ read out, CCR7-CD45RA- T cells stimulated with anti-CD3 (human Kv1.3 [11]): 47 nM; IC50 (cyno Kv1.3 [2]): 9.8 nM; Average IC50, Kv1.3 current, IonWorks perforated patch clamp, CHL cells (human Kv1.3 [3]): 37 nM; IC50 (read off the curve) (human Kv1.3 [4]): ~10 nM; Average IC50, Kv1.3 current, IonFlux automated patch clamp, HEK293H cells (human Kv1.3 [12]): 8.2 nM; EC50 (cyno Kv1.3 [5]): 11 nM; EC50 (human Kv1.3 [6]): 7.9 nM
4 | B4 | 0.059 nM | 0.032 nM | 0.8 nM | – | 0.2 nM | 0.66 nM | 0.44 nM | 0.31 nM | –
5 | B5 | 0.11 nM | 0.32 nM | 14 nM | 14 nM | 0.61 nM | 1.1 nM | 0.74 nM | 0.41 nM | –
6 | B6 | 0.12 nM | 0.069 nM | 1.2 nM | – | 0.56 nM | – | – | – | IC50, CD25 read out, T cell activation assay (human Kv1.3 [16]): 0.12 nM; IC50, CD25 read out, T cell activation assay, with 10 µM HSA (human Kv1.3 [16]): 0.33 nM; IC50, IFNγ read out, T cell activation assay (human Kv1.3 [16]): 0.069 nM; IC50, IFNγ read out, T cell activation assay, with 10 µM HSA (human Kv1.3 [16]): 0.086 nM
7 | B7 | – | – | 0.81 nM | 0.73 nM | – | – | – | – | –
8 | B8 | 0.12 nM | 0.083 nM | – | – | 0.66 nM | 0.32 nM | 0.49 nM | 0.24 nM | IC50, CD25 read out, T cell activation assay (human Kv1.3 [16]): 0.12 nM; IC50, CD25 read out, T cell activation assay, with 10 µM HSA (human Kv1.3 [16]): 0.037 nM; IC50, IFNγ read out, T cell activation assay (human Kv1.3 [16]): 0.083 nM; IC50, IFNγ read out, T cell activation assay, with 10 µM HSA (human Kv1.3 [16]): 0.031 nM; EC50 (rat Kv1.3 [17]): 0.85 nM; EC50 (cyno Kv1.3 [18]): 0.45 nM; EC50 (rat Kv1.3 [19]): 0.704 nM; EC50 (cyno Kv1.3 [20]): 0.33 nM
9 | B9 | – | – | > 1000 nM | – | 0.64 nM | 2.2 nM | 1.1 nM | 0.44 nM | –
